One data set deals with dynorphin B-9 (UniProt P01213).
In data set [1] the target is amyloid beta peptide Aβ1-40. The experiment in a line: cell-based or functional assay.
Data set [2] addresses human β-endorphin1-31 (human) (UniProt P01189). The experiment in a line: cell-based or functional assay.
Data set [3] deals with Aβ added to the cultures at 10 µM in a non-fibrillar state. The experiment in a line: cell-based or functional assay.

Sequence of human β-endorphin1-31 (human) (P01189 237-267 limits assumed): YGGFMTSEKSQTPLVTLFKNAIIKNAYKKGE

For the substance trypsin, the “trypsin hydrolysis of the fluorogenic peptide Abz-GGFLRKHGQ-EDDnp (SEQ ID NO: 14)” value with dynorphin B-9 is “trypsin hydrolysis of the same peptide showed inhibition, not activation, by dynorphin B-9”.

Substance “recombinant rat insulysin with an N-terminal His6 affinity tag, expressed in baculovirus-infected Sf9 cells (from UniProt P35559 42-1019) (enzyme)” came in with an inhibition of deposition of 125I-Aβ1-40 onto pre-deposited Aβ1-40 (% inhibition with 50 ng of insulysin) in data set [1] of 50. Turning to “insulysin purified from a thymoma cell line, EL-4 (from UniProt Q9JHR7 42-1019) (enzyme)”, the specific activity of enzyme purified from a thymoma cell line, EL-4 in data set [2] is 3.3 µmols/min/mg. In turn, “human neprilysin expressed from a lentiviral construct in primary neuronal cultures of neprilysin deficient mice (from UniProt P08473 2-750) (enzyme)” showed a survival of neuronal cells subjected to Aβ induced neurotoxicity (% increase in cell survival) in data set [3] of 75.

For the origin of these results see patent US7807396.
